Source: PMC2811017
Like-named read-outs stand apart in the source and are kept apart here.

Legend:
Test in all cases: ITC
[1] = molecular target: eRF1:eRF3 complex (human) (UniProt P62495)
[2] = molecular target: full-length human eRF3a (GSPT1) (human)
[3] = molecular target: full-length human eRF3a (GSPT1) (human); remark: listed apart in the source

Substance | Kd [1] [nM] | dH [1] [kcal/mol] | stoichiometry N (PABP per eRF3) [1] | Kd [2] [nM] | dH [2] [kcal/mol] | stoichiometry N (PABP per eRF3) [2] | Ka [3] [M⁻¹] | dH [3] [kcal/mol] | Ka [2] [M⁻¹]
human 6His cytoplasmic poly(A)-binding protein (PABP) (from UniProt P11940 1-636) (natural protein) | 700 | -26.3 | 0.71 | 700 | -30.3 | 0.5 | – | – | –
human 6His eRF1 (from UniProt P62495 1-437) (natural protein) | – | – | – | – | -6.1 | – | 1.1e+06 | -10.8 | 4.4e+06
